Measurements as given in patent US20190060239A1, “Technology for the Preparation of Microparticles” (Ansun Biopharma, Inc., priority 2007, published 2019).

Assays:
[1] = Microsphere formation, size and appearance by light microscopy; assay type: physicochemical
[2] = Sialidase activity with fluorogenic substrate 4-MU-NANA; assay type: biochemical
Experimental: The sialidase activity of DAS181 was measured using the fluorogenic substrate 4-methylumbelliferyl-N-acetyl-α-D-neuraminic acid (4-MU-NANA; Sigma). One unit of sialidase is defined as the amount of enzyme that releases 10 nmol of MU from 4-MU-NANA in 10 minutes at 37° C. (50 mM CH3COOH—NaOH buffer, pH 5.5) in a reaction that contains 20 nmol of 4-MU-NANA in a 0.2 ml volume (Potier et al., Anal. Biochem., 94:287-296, 1979). The specific activity of DAS181 was determined to be 1,300 U/mg protein (0.77 μg DAS181 protein per unit of activity).

[3] = Microsphere quality score by light microscopy (scoring system of Table 13); assay type: physicochemical
Experimental: For each of the compounds listed in A-D above, and for DAS181, cocktail solutions containing 2 mg/ml of compound dissolved in an aqueous solvent and various counterions, antisolvents and pH, as listed below, were prepared in a 96-well microtiter plate (0.1 ml cocktail/well) at room temperature. Control solutions contained either solvent or antisolvent alone, with or without the counterion. Cocktails were cooled by placing in a freezer. The chilled plates were transferred onto pre-chilled (−45° C.) shelves of a Millrock Lab Series Lyophilizer, and the vacuum was applied. The frozen cocktail solutions were allowed to lyophilize for 16 hours.
The lyophilized powders from the bottoms of the wells were transferred onto glass slides and analyzed by light microscopy for appearance. The quality of the product microspheres was scored based on the uniformity of the microspheres, the absence of undesirable non-microsphere particles (glass-like crystalline forms), and the absence of aggregates.
Arginine was used as counterion and isopropanol was used as antisolvent. Concentrations of each of the cocktail components—the compound, the counterion and the antisolvent—were varied as shown below in Table 15, and the effect on microsphere quality assessed.
Experiments were performed to evaluate the effect of antisolvent and counterion concentration variation on the formation of microspheres. The peptides leuprolide and somatostatin, and the antibiotics vancomycin and tobramycin, were tested under a variety of conditions for forming microspheres. Samples were analyzed in 96-well plates as described in the previous Examples.
The experiments were performed using PGI2 and an analog of PGI2, Ciprostene, at a concentration of 2 mg/ml. Cocktail solutions were mixed at room temperature, then cooled by placing in a freezer. The chilled plates were transferred onto pre-chilled (−45° C.) shelves of a Millrock Lab Series Lyophilizer, and the vacuum was applied. The frozen cocktail solutions were allowed to lyophilize for 16 hours.
Because the resulting prostaglandin microspheres are hygroscopic, upon microsphere initiation, the humidity was maintained at low levels during the experiments, using a nitrogen gas tank attached to the backfill system on the lyophilizer. Each of the reaction tubes was flushed with N2. In addition, the backfill valve on the lyophilizer was left open to continually flush a low humidity atmosphere over the samples. The microscope used to visualize the resulting microspheres was contained within a plastic bag that was continually purged with dry N2. Sample tubes were placed under the bag to equilibrate for approximately 30 seconds, before opening and spreading onto the glass slide.
The compound/counterion/antisolvent conditions were as follows:
Experiments were performed with 200 μl of each of the above cocktail solutions in a 2 ml lyophilization bottle (first flash freeze condition), and 25 μl of each of the above cocktail solutions in a PCR tube (second flash freeze condition). The samples in the lyophilization bottles took approximately 15 seconds to freeze. The samples in the PCR tubes took approximately 3 seconds or less to freeze.
The cocktails in the 96-well plates were cooled by placing in a freezer. The chilled plates were transferred onto pre-chilled (−45° C.) shelves of a Millrock Lab Series Lyophilizer, and a vacuum was applied. The frozen cocktail solutions were allowed to lyophilize for 16 hours.
The lyophilized powders from the bottoms of the wells were transferred onto glass slides and analyzed by light microscopy for appearance.

B1: DAS181: fusion protein: heparin (GAG) binding domain of human amphiregulin fused to a catalytic domain of Actinomyces Viscosus sialidase (SEQ ID NO:17) (protein)
chain: MGDHPQATPAPAPDASTELPASMSQAQHLAANTATDNYRIPAITTAPNGDLLISYDERPKDNGNGGSDAPNPNHIVQRRSTDGGKTWSAPTYIHQGTETGKKVGYSDPSYVVDHQTGTIFNFHVKSYDQGWGGSRGGTDPENRGIIQAEVSTSTDNGWTWTHRTITADITKDKPWTARFAASGQGIQIQHGPHAGRLVQQYTIRTAGGAVQAVSVYSDDHGKTWQAGTPIGTGMDENKVVELSDGSLMLNSRASDGSGFRKVAHSTDGGQTWSEPVSDKNLPDSVDNAQIIRAFPNAAPDDPRAKVLLLSHSPNPRPWSRDRGTISMSCDDGASWTTSKVFHEPFVGYTTIAVQSDGSIGLLSEDAHNGADYGGIWYRNFTMNWLGEQCGQKPAKRKKKGGKNGKNRRNRKKKNP
modifications: DAS181
size of microspheres ([1]; 5 mg/ml or 10 mg/ml DAS181, 5 mM sodium citrate, 5% isopropanol): about 1.5 micron | appearance of dry pellet ([1]; cocktail 2): 10 mg/ml DAS181, 5 mM glycine pH 5.0, 10% isopropanol, gradual cooling): a mixture of glass-like crystals and agglomerates with only a few microspheres | appearance of dry pellet ([1]; cocktail 4) (5 mM sodium citrate, 10% isopropanol) snap-frozen in liquid nitrogen in a glass tube): glass-like crystals and no microspheres | appearance of dry pellet ([1]; cocktail 4) (5 mM sodium citrate, 10% isopropanol) snap-frozen in liquid nitrogen in a plastic tube): agglomerated microspheres | appearance of dry pellet ([1]; cocktails 1) and 3): 10 mg/ml DAS181, 5 mM glycine or 5 mM sodium citrate pH 5.0, no organic solvent): no microspheres were observed | appearance of microspheres (microscopy and cascade impaction) ([1]; continuous mode: 10 mg/ml DAS181, 20% isopropanol, 2 mM sodium sulfate, heat exchanger, cooled from about 25°C to about −12°C): uniform microspheres with minimal aggregation and good dispersivity | appearance after lyophilization ([1]; same cocktail not chilled, poured directly into liquid nitrogen): no microspheres were observed | specific activity of DAS181 ([2]; 4-MU-NANA, 37°C, pH 5.5, one unit releases 10 nmol MU in 10 minutes): 1,300 U/mg protein | DAS181 protein per unit of activity ([2]; same assay): 0.77 µg | Microsphere Quality ([3]; 2 mM Na-Glutamate, 15% n-propanol, pH 4.0): 6/7 | Microsphere Quality ([3]; 2 mM Na-citrate, 15% isopropanol, pH 4.0): 5/6 | Microsphere Quality ([3]; 2 mM Na-citrate, 15% n-propanol, pH 5.0): 8/9
